Test results from US12371675B2, “Process and microorganism for synthesis of adipic acid from carboxylic acids” (THE GOVERNING COUNCIL OF THE UNIVERSITY OF TORONTO, priority 2015, dated 2025).

B1: RHA1_ro08443: aldehyde reductase (AR) from Rhodococcus jostii (protein)
chain: MPEIVKFEMPRVETVVQGVGAVREIGAELDRRDLKRVFLVTGHSVGSSEAFAALASDLGDRVVGIFDQVKAHNPVELIVELITAAKSAQAEAFVAVGGGSPVDAAKLAAIGLCEGSESVEDLARNYLVFEYPNTIHQKPLTGTPMPVFAVPTTLSAAEWDGFAGSVDHTRDTKDLTVYLEATPQVVFLDPEFCAHTPRDLWATTGVRALDHAVETAYAKNAHPFTTALANGALTMLAENLPRSVKDPHDYDAALKCLEAAWMSIIGVHNVSLGLSHAIGHQLGAVGIPHGVTSCIMLPHVMRFLEPVTSAEQARMAQSLAQVQGDGEDLPAADRLERILDELGVPRRVSEFGVGRDKMDGVARATLGDIVVRESPRPVDETVVYGLLETVW
B2: TM_0111: aldehyde reductase (AR) from Thermotoga maritima (protein)
chain: MFKISFYLPTEIIFRVGAVDELEERAKKLGKKALIVTGRSSTKKTGLLQRVVDLLKKAGVESFVFDKIVPNPISDHVDEAAEIVRKEKIDFIIGLGGGSPIDSAKAISITAPNEGKFWDYVPVGGGKIPEKSIPVVAIPTTHGTGTEADPFAVITNPQTKEKVGIGYRNTFPVLSLVDPEVMKTLPKDQTAYTSMDAFYHAIEAFLNVNANPYSDVLALDAMKRIVTYLPVAYENGEDMEARTNLAWASTEAGITETLTGVIANHALEHGLSGFYPEITHGLGLCITGPYLFEYIFDHAYERLAIVGREVFGVYETDDRKAGRLAIKKLRDFQEMFGLNKRLSELGVKKEDIPKMAETGYRILNGVVVVTPGNLTAKDMEEIFNRCY
B3: SFyv_1886: aldehyde reductase (AR) from Shigella flexneri (protein)
chain: MHYQPKQDLLNDRIILVTGASDGIGREAAMTYARYGATVILLGRNEEKLRQVASHINEETGRQPQWFILDLLTCTSENCQQLAQRIVVNYPRLDGVLHNAGLLGDVCPMSEQNPQVWQDVMQINVNATFMLTQALLPLLLKSDAGSLVFTSSSVGRQGRANWGAYAASKFATEGMMQVLADEYQQRLRVNCINPGGTRTAMRASAFPTEDPQKLKTPADIMPLYLWLMGDDSRRKTGMTFDAQPGRKPGISQ
B4: RPA0021: aldehyde reductase (AR) from Rhodopseudomonas palustris (protein)
chain: MTPRNATVAVIGAGDYIGAEIAKKFAAEGFTVFAGRRNGEKLAPLVAEIEAAGGRIVARSLDARNEDEVTAFLNAADAHAPLEVTIFNVGANVNFPILETTDRVFRKVWEMACWAGFVSGRESARLMLAHGQGKIFFTGATASLRGGSGFAAFASAKFGLRAVAQSMARELMPKNIHVAHLIIDSGVDTAWVRERREQMFGKDALANPDLLMPPAAVAGAYWQLYQQPKSAWTFEMEIRPYGEKW
B5: SCO0229: aldehyde reductase (AR) from Streptomyces coelicolor (protein)
chain: MQRQNWLITGVSTGLGRAFAQAALSAGHTVVGTVRSENDVRAFEELGPGHAHGRILDVTDGGAVNGVVAEVERSVGPLDVVVANAGYGLEGTFEETPLAEVRRQFDVNVFGAMATLQAALPHMRARRRGHLMAVTSMGGLMAVPGMSAYCGSKFALEGILEALGKEVAQFGIHVTAIEPGSFRTDWAGRSMTRAARTVADYDDLFAPIREARQKASGNQLGNPAKAGEAVVHITSVDQPPAHLVLGSDALRLVTAARTAVDEDIRAWEALSRTTDFPQGAQL

Assay: AR reductase activity, NAD(P)H oxidation at 340 nm
Format: biochemical
Conditions: 10 mM, ND = no activity was detected
Experimental: Enzyme activity of purified ARs was measured spectrophotometrically in 96-well plates Reaction mixtures contained 100 mM HEPES buffer (pH 7.5), 0.4 mM NADH/NADPH, 10 mM adipaldehyde or butylaldehyde, and proteins (10 μg for adipaldehyde screen, 2 μg for butyraldehyde screen) in a final volume of 200 μL Reaction mixture for adipaldehyde screening contained 1.8% DMSO. Enzyme reactions were monitored by following the decrease in absorbance at 340 nm (ε340 nm=6,220/M·cm) due to oxidation of NAD(P)H to NAD(P)+.

Row | Molecule | Activity [U/mg protein] Butyraldehyde [U/mg protein] | Activity [U/mg protein] Adipaldehyde (1.8% DMSO) [U/mg protein]
1 | B1 | 0.188 ± 0.142 | 
2 | B2 | 1.055 ± 0.43 | 
3 | B3 | 0.124 ± 0.042 | 
4 | B4 | 0.116 ± 0.031 | 
5 | B5 | 0.892 ± 0.847 | 0.362 ± 0.05
